In the DeepSol protein solubility set:

experiment: soluble on expression in E. coli; label from the status in PepcDB or PDB records

Soluble on expression in E. coli, not soluble:
YLASDGKTIILVGKNNLQNDELTFKMSKKGELWFHAKDIPGSHVLIKDNLNPSDEIKTDAAELAAYFSKARLSNLVQVDMIEAKKLNK
YRQQFDFSCGSAALASLLTFHYDDSVDEQSVFVDMFQHGDQEKIRREGFSMLDMKRYLERRGYGSDGFKINLDQLYSTGSPAITIINHNGYMHFVIIKGVDEDRVLVGDPAQGVKSMDRTEFERMWGNRIVFLIHNHVD
YSGLHLCESHLCRAVTKRVRRRIREDGLVSDDATVEDPETWVIGLSGGKDSVVLTQILHDTFAEDPRIELVALSIHEGIEGYRDASLEACEELTDDLGIEHVTVSYAEEFGVQMDDVVEDDPEGMAACAYCGVFRRDLLSKYAEELDADKLLTGHNLDDEAETALMNFLEGDISQIAKHFEASLGPFDSSADAPTEQTREAQDHHIPRAKPLRDIPEKEVALYARFEDLPAHITEC
